Assay results published in article PMC4074165.
Like-named read-outs stand apart in the source and are kept apart here.

B1: P1-3 (ssRNA)
RNA: GGGUACUGUGUUUGAUAAAUGUUGUCCAGGUUCACUUGCCAAGAAUGUGUUGUCUAAAAUG
B2: P1-1-mut1 (E1 U to C) (ssRNA)
RNA: GGGGAAAAGGGUUUAAACAGCCCGAAACACCCUGUCUUCAUUUCUGUAAUAGUUA
B3: P1-1 (ssRNA)
RNA: GGGGAAAAGGGUUUAAACAGUUUGAAAUAUUCUGUCUUCAUUUCUGUAAUAGUUA
B4: P2-3 (ssRNA)
RNA: GGGAAAUGGUAGGGAGACAAAUAUACAUGUGAAAUAAACUCAGUAUUUUAAUAAAGU
B5: P1-1-mut2 (E2 U to C) (ssRNA)
RNA: GGGGAAAAGGGUUUAAACAGUUUGAAAUAUUCUGUCUUCAUUUCUGCAACAGCCA
B6: P1-2 (ssRNA)
RNA: GGGAUAUCUGGCUGUCCUUUUUAUAAUGCAAAGUGAGAACUUUCCCUAC
B7: P1-1-mut3 (hinge U to C) (ssRNA)
RNA: GGGGAAAAGGGUUUAAACAGUUUGAAAUAUUCCGCCCCCACCCCCGUAAUAGUUA
B8: P2-1 (ssRNA)
RNA: GGGCCUGUUUAGUUUUCAAGGAUGGAACUCCACCCUUUACUUGGUUUUAAGU
B9: P2-2 (ssRNA)
RNA: GGGAGUAUGUAUGGAAUGUUAUGAUAGGACAUAGUAAUAGUGGUCAGAUGUGGAAA

Experiments:
Assay in all cases: EMSA
GST-HuR [1] = target: T1, GST-HuR (UniProt Q15717 1-326)
GST-HuR [2] = target: T1, GST-HuR; remark: listed apart in the source
GST-HuR [3] = target: T1, GST-HuR; remark: listed apart in the source
GST-HuR [4] = target: T1, GST-HuR; remark: listed apart in the source

T1 sequence (Q15717 whole entry): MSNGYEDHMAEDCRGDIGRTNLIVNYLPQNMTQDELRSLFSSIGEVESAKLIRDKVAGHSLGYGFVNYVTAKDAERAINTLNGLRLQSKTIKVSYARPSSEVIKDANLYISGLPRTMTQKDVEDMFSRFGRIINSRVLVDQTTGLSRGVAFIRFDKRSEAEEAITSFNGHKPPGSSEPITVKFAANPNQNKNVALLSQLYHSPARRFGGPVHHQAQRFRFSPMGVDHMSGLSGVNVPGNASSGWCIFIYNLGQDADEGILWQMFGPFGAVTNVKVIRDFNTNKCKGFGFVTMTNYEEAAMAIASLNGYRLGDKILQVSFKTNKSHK

Binder	binding result (GST-HuR [1])	further results
B1	no binding	–
B2	–	binding result (GST-HuR [2]): no binding
B3	binds	–
B4	no binding	–
B5	–	binding result (GST-HuR [3]): no binding
B6	no binding	–
B7	–	binding result (GST-HuR [4]): binds
B8	no binding	–
B9	no binding	–
